US20220177591A1 (TARGINTA, published 2022)

Molecular target: T1, human integrin alpha10 on human cancer cell lines (BT549, PC-3, A549, MiaPaCa-2, PANC-1) (human, UniProt O75578 23-1167)
T1 construct: Endogenous protein on human cell lines; also called integrin alpha10 polypeptide; alpha10 subunit of integrin alpha10 beta1
T1 sequence: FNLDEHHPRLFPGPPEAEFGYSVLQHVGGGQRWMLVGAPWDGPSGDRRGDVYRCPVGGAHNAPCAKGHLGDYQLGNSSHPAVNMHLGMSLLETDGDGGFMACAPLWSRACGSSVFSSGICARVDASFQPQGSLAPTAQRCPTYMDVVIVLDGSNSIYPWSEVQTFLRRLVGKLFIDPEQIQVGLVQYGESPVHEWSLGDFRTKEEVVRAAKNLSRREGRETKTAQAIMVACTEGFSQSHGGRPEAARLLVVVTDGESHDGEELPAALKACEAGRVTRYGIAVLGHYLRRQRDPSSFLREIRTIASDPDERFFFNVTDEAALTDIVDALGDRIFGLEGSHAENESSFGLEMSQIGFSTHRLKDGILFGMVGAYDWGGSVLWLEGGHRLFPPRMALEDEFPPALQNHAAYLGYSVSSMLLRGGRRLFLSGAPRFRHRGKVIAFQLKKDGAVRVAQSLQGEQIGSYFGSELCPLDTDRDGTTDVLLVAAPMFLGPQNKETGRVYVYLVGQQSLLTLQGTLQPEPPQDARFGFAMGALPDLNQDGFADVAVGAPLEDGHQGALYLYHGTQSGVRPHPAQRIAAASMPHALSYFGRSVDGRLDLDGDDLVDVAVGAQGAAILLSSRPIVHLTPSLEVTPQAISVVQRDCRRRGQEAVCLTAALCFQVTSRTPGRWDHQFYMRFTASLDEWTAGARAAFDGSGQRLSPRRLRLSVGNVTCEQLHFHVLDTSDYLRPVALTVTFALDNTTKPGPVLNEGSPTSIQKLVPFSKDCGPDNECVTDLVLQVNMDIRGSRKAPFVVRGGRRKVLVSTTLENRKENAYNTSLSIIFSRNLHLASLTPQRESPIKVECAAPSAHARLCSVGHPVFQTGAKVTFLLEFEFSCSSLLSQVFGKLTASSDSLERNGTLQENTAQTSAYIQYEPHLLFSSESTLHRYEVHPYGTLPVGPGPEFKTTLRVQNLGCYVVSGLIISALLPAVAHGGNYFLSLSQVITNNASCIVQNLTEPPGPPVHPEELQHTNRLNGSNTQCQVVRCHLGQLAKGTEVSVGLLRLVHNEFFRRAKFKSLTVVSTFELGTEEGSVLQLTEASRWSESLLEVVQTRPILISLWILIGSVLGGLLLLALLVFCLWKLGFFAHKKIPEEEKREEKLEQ
Test: flow cytometry competition on BT549 cells
Protocol: The binding competition assay of the antibody mouse monoclonal antibody mAbα10 and the human monoclonal antibody Th101 was performed in integrin alpha10 overexpressing C2C12α10 cells and triple-negative breast cancer BT549 cells. The cells were incubated with single or mixed antibodies at the indicated concentrations (μg/ml) for 30 min followed by two washed, and then stained with secondary antibodies for 30 min. Donkey anti-human Alexa 488 was used as a secondary antibody to the human monoclonal antibody Th101. Donkey anti-mouse Alexa 647 was used as a secondary antibody to the mouse monoclonal antibody mAbα10. The binding of the antibodies was analyzed by flow cytometry, wherein the fluorescence signal of the secondary antibodies were detected.

B1: human monoclonal anti-integrin alpha10 antibody Th101 (antibody, V domains shown)
VH: EVQLLESGGGLVQPGGSLRLSCAASGFTFSDYGMNWVRQAPGKGLEWVAVISYDGSNKYYADSVKGRFTISRDNSKNTLYLQMNSLRAEDTAVYYCARGGNWGVFDYWGQGTLVTVSS
VL: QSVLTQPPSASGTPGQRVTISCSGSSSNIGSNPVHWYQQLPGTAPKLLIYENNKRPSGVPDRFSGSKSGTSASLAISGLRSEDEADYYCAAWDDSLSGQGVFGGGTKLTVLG
notes: It is a human monoclonal antibody detected with an anti-human secondary; Its negative control Th301 is human IgG1 VH/Lambda
B1: binds.
